Reference: article PMC5505961

Target: recombinant LHCII (major light-harvesting complex), Lhcb1*2 (AB80) derivative with N-terminal Cys-Cys-Cys motif, C79S and C-terminal His6 tag (pea (Pisum sativum))
Assay: sucrose density gradient ultracentrifugation; reconstituted monomers trimerized by His6 tag on Ni2+-sepharose columns, then sucrose density gradient (500 mM sucrose, 10 mM Tris-HCl pH 7.5, 5 mM TCEP, 0.05% (w/v) Triton X-100); trimer band collected and checked by CD (negative peak at 474 nm)

recombinant LHCII (major light-harvesting complex), Lhcb1*2 (AB80) derivative with N-terminal Cys-Cys-Cys motif, C79S and C-terminal His6 tag (natural protein)
stoichiometry N: 3
